Source: IntAct's records for PubMed 17128263

B1: 1-phosphatidylinositol 4,5-bisphosphate phosphodiesterase gamma-1 (Rattus norvegicus (Rat)), P10686 (parent)
chain: MAGVGTPCANGCGPSAPSEAEVLHLCRSLEVGTVMTLFYSKKSQRPERKTFQVKLETRQITWSRGADKIEGSIDIREIKEIRPGKTSRDFDRYQEDPAFRPDQSHCFVILYGMEFRLKTLSLQATSEDEVNMWIKGLTWLMEDTLQAATPLQIERWLRKQFYSVDRNREDRISAKDLKNMLSQVNYRVPNMRFLRERLTDFEQRSGDITYGQFAQLYRSLMYSAQKTMDLPFLETNTLRTGERPELCQVSLSEFQQFLLEYQGELWAVDRLQVQEFMLSFLRDPLREIEEPYFFLDELVTFLFSKENSVWNSQLDAVCPETMNNPLSHYWISSSHNTYLTGDQFSSESSLEAYARCLRMGCRCIELDCWDGPDGMPVIYHGHTLTTKIKFSDVLHTIKEHAFVASEYPVILSIEDHCSIAQQRNMAQHFRKVLGDTLLTKPVDIAADGLPSPNQLKRKILIKHKKLAEGSAYEEVPTSVMYSENDISNSIKNGILYLEDPVNHEWYPHYFVLTSSKIYYSEETSSDQGNEDEEEPKEASGSTELHSSEKWFHGKLGAGRDGRHIAERLLTEYCIETGAPDGSFLVRESETFVGDYTLSFWRNGKVQHCRIHSRQDAGTPKFFLTDNLVFDSLYDLITHYQQVPLRCNEFEMRLSEPVPQTNAHESKEWYHASLTRAQAEHMLMRVPRDGAFLVRKRNEPNSYAISFRAEGKIKHCRVQQEGQTVMLGNSEFDSLVDLISYYEKHPLYRKMKLRYPINEEALEKIGTAEPDYGALYEGRNPGFYVEANPMPTFKCAVKALFDYKAQREDELTFTKSAIIQNVEKQDGGWWRGDYGGKKQLWFPSNYVEEMINPAILEPEREHLDENSPLGDLLRGVLDVPACQIAIRPEGKNNRLFVFSISMPSVAQWSLDVAADSQEELQDWVKKIREVAQTADARLTEGKMMERRKKIALELSELVVYCRPVPFDEEKIGTERACYRDMSSFPETKAEKYVNKAKGKKFLQYNRLQLSRIYPKGQRLDSSNYDPLPMWICGSQLVALNFQTPDKPMQMNQALFMAGGHCGYVLQPSTMRDEAFDPFDKSSLRGLEPCVICIEVLGARHLPKNGRGIVCPFVEIEVAGAEYDSTKQKTEFVVDNGLNPVWPAKPFHFQISNPEFAFLRFVVYEEDMFSDQNFLAQATFPVKGLKTGYRAVPLKNNYSEDLELASLLIKIDIFPAKENGDLSPFSGTSLRERASDASSQLFHVRAREGSFEARYQQPFEDFRISQEHLADHFDSRERRAPRRTRVNGDNRL
B2: 1-phosphatidylinositol 4,5-bisphosphate phosphodiesterase gamma-1 (Rattus norvegicus (Rat)), P10686 (parent)
chain: B1 chain
partner: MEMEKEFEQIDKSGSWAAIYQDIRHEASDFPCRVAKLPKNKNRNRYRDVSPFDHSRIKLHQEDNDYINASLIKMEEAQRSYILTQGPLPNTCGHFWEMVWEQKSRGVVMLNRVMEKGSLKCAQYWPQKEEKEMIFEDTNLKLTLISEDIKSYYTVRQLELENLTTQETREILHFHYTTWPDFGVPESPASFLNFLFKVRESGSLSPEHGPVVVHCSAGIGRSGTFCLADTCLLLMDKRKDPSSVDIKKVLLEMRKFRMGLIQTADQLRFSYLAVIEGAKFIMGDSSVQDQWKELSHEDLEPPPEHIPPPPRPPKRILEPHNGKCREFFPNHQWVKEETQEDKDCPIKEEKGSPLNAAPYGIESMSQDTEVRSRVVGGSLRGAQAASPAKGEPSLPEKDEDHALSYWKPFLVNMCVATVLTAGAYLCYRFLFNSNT

Variants of: B1
Conditions: with jak2_mouse Jak2, Q62120

| Variant | effect of a mutation on the interaction |
| --- | --- |
| R586K | disrupting interaction |

Variants of: B2
Conditions: with ptn1_human PTPN1, P18031

| Variant | effect of a mutation on the interaction |
| --- | --- |
| P842K | disrupting interaction |

Variants of: B2
Conditions: with ptn1_human PTPN1, P18031
Remark: another data set of the same source

| Variant | effect of a mutation on the interaction |
| --- | --- |
| R586K | disrupting interaction |
